Measured values as given in patent publication US20210072228A1 (UT BATTELLE, published 2021).

Target: the molecule itself
Assay: size exclusion chromatography (homodimerization) of GFP-tagged PAN domain purified from HEK293 cells
From the text: These cysteine residues coordinate three disulfide bridges to form a hairpin structure. The inventors hypothesized that cysteine rich PAN domain of G-lecRLKs form disulfide bonds involved in dimerization and subsequent receptor proteolysis to prevent downstream signaling cascades. To address this hypothesis, a GFP tagged PAN domain construct of RLK5 was made. In addition, mutated amino acids in the RLK5 vestigial domain were restored to consensus PAN domain amino acids based on the alignment in FIG. 1, this construct was designated RLK5-restored (RLK5R). Both RLK5 and RLK5R constructs were transfected and overexpressed in HEK293 cells. Proteins were purified on GFP column and loaded into size exclusion column (SEC) to analyze the oligomeric state.

B1: GFP tagged PAN domain construct of RLK5 (SapurV1A.0037s0270.1) (receptor)
chain: DSDYNMDTYEHTFLYGIYPPNEAIIIASLQQCREVCMQDPGCTAATFTNDGTSQCRMKTSPYFSGHQNPSLSSISFVKT
notes: It was expressed in HEK293 cells and purified on a GFP column; not shown: GFP tag
Does B1 bind?
Result: no binding
